Data on 14 molecules can be found in patent US20220195057A1 (LANOVA MEDICINES, published 2022).

Test [1] deals with human chemokine (C-C motif) receptor 8 (CCR8) protein (human) (UniProt P51685). As to the kind of experiment: flow cytometry, high-CCR8-expressing U2OS cells. Background: Flow cytometry measures light scatter and fluorescence of single cells or particles in a stream.
The target is the same in test [2]. As to the kind of experiment: flow cytometry, low-CCR8-expressing Jurkat cells.
In test [3] the target is T1, human chemokine (C-C motif) receptor 8 (CCR8) protein (human, UniProt P51685 1-355). Briefly: cell-based or functional assay.
For test [4], the target named is T1, human chemokine (C-C motif) receptor 8 …. Briefly: cell binding, CCR8-expressing U2OS cells, curve fit. On the set-up: LogEC50: unit not given here.
For test [5] the target is unchanged. As to the kind of experiment: cell binding, CCR8-expressing CHO-K1 cells, curve fit. Also noted: LogEC50: unit not given here.
Test [6] has the same target. As to the kind of experiment: cell binding, CCR8-expressing U2OS cells, curve fit. On the set-up: LogEC50: unit not given here. The source holds these as a separate data set.
Test [7] shares this target. As to the kind of experiment: cell binding, CCR8-expressing CHO-K1 cells, curve fit. On the set-up: LogEC50: unit not given here. This is another data set of the same source.

isotype control (antibody): the Max (MFI) in test [1] stood at 215 MFI; in test [2] it was 134 MFI.

B1: LM-108-vc-MMAE (other)
VH: EVQLVESGGGLVQPGGSLKLSCAASGFTFNTYAMNWVRQASGKGLEWVARIRSKANNYATYYADSVKDRFTISRDDSKNTLYLQMNNLKTEDTAVYYCVRDRSRGEDYAMDYWGQGTLVTVSS
VL: DIVMTQSPLSLPVTPGEPASISCRSSKSLLHSNANTYLYWFLQKPGQSPQLLIYRMSNLASGVPDRFSGSGSGTAFTLKISRVEAEDVGVYYCMQHLEYPFTFGQGTKLEIK
modifications: vc-MMAE (monomethyl auristatin E) conjugated to the antibody; site and drug number not stated
For the molecule B1, the “cytotoxicity IC50 (Cell-Titer-Glo viability, 96 hours)” value in test [3] was 0.528 nM.

B2: 137-xi (antibody, V domains shown)
VH: EVQLVESGGGLVQPKGSLKLSCTASGFTFNTYAMNWVRQAPGKGLEWVARIRSKANNYATYYADSVKDRFTISRDDSQRILYLQMNNLKAEDTAMYYCVRDRSRGEDYAMDYWGQGTSVTVSS
VL: DIVMTQAAPSVPVTPGESVSISCRSSKSLLHSNGNTYLYWFLQRPGQSPQLLIYRMSNLASGVPDRFSGSGSGTAFTLRISRVEAEDVGVYYCMQHLEYPFTFGAGTKLELK
notes: also called 137D1H10; chimeric 137D1H10
In test [4], B2 gave a Bottom of 2170, a LogEC50 of -0.605, a Span of 31300 and a Top of 33400. Moreover, in test [5], the Bottom is 3030, the LogEC50 is -0.779, the Span stood at 31900 and the Top came out at 34900.

B3: 137-H2L2 (antibody, V domains shown)
VH: EVQLVESGGGLVQPGGSLKLSCAASGFTFNTYAMNWVRQASGKGLEWVGRIRSKANNYATYYADSVKDRFTISRDDSKNTAYLQMNNLKTEDTAVYYCVRDRSRGEDYAMDYWGQGTLVTVSS
VL: DIVMTQSPLSLPVTPGEPASISCRSSKSLLHSNANTYLYWFLQKPGQSPQLLIYRMSNLASGVPDRFSGSGSGTAFTLKISRVEAEDVGVYYCMQHLEYPFTFGQGTKLEIK
notes: Humanized 137D1H10
With B3, in test [4], the Bottom amounted to 915, the LogEC50 is -0.842, the Span was 25300 and the Top stood at 26300. Further, in test [5], the Bottom was found to be 2550, the LogEC50 was -0.789, the Span was found to be 26800 and the Top amounted to 29300.

B4: 88-H2L2 (antibody, V domains shown)
VH: EVQLVESGGGLVQPGGSLKLSCAASGFTFNPNAMNWVRQASGKGLEWVGRIRSKSNNYATYYADSVKDRFTISRDDSKNTAYLQMNNLKTEDTAVYYCVRGKDDGYRHYAMDYWGQGTTVTVSS
VL: DIVMTQSPLSLPVTPGEPASISCRSSKSLLHSNANTYLYWFLQKPGQSPQLLIYRMSNLASGVPDRFSGSGSGTAFTLKISRVEAEDVGVYYCMQHLEYPFTFGGGTKVEIK
notes: Humanized 88D2C6
Take B4: in test [6], the Bottom worked out at 2760, the LogEC50 was -0.724, the Span stood at 25600 and the Top stood at 28300. Moreover, in test [7], the Bottom was 2490, the LogEC50 is -0.639, the Span came out at 30300 and the Top turned out to be 32800.

B5: 88-H3L3 (antibody, V domains shown)
VH: EVQLVESGGGLVQPGGSLKLSCAASGFTFNPNAMNWVRQASGKGLEWVARIRSKSNNYATYYADSVKDRFTISRDDSKNTLYLQMNNLKTEDTAVYYCVRGKDDGYRHYAMDYWGQGTTVTVSS
VL: DIVMTQAPLSLPVTPGEPVSISCRSSKSLLHSNANTYLYWFLQKPGQSPQLLIYRMSNLASGVPDRFSGSGSGTAFTLKISRVEAEDVGVYYCMQHLEYPFTFGGGTKLEIK
notes: Humanized 88D2C6
Consider B5, for which, in test [6], the Bottom amounted to 1620, the LogEC50 is -0.629, the Span was found to be 25800 and the Top was determined as 27400. In addition, in test [7], the Bottom stood at 3470, the LogEC50 is -0.583, the Span worked out at 28700 and the Top is 32200.

B6: 137-H2L3 (antibody, V domains shown)
VH: EVQLVESGGGLVQPGGSLKLSCAASGFTFNTYAMNWVRQASGKGLEWVGRIRSKANNYATYYADSVKDRFTISRDDSKNTAYLQMNNLKTEDTAVYYCVRDRSRGEDYAMDYWGQGTLVTVSS
VL: DIVMTQSPLSLPVTPGEPVSISCRSSKSLLHSNANTYLYWFLQKPGQSPQLLIYRMSNLASGVPDRFSGSGSGTAFTLKISRVEAEDVGVYYCMQHLEYPFTFGQGTKLEIK
notes: Humanized 137D1H10
In test [4], B6 came in with a Bottom of 1320, a LogEC50 of -0.484, a Span of 25900 and a Top of 27300. In test [5], the Bottom worked out at 2240, the LogEC50 is -0.505, the Span is 27900 and the Top amounted to 30200.

B7: 88-H2L3 (antibody, V domains shown)
VH: EVQLVESGGGLVQPGGSLKLSCAASGFTFNPNAMNWVRQASGKGLEWVGRIRSKSNNYATYYADSVKDRFTISRDDSKNTAYLQMNNLKTEDTAVYYCVRGKDDGYRHYAMDYWGQGTTVTVSS
VL: DIVMTQAPLSLPVTPGEPVSISCRSSKSLLHSNANTYLYWFLQKPGQSPQLLIYRMSNLASGVPDRFSGSGSGTAFTLKISRVEAEDVGVYYCMQHLEYPFTFGGGTKLEIK
notes: Humanized 88D2C6
On to B7, for which, in test [6], the Bottom is 1530, the LogEC50 was -0.512, the Span was found to be 24200 and the Top worked out at 25800. In test [7], the Bottom was 2280, the LogEC50 is -0.546, the Span came to 29300 and the Top is 31600.

B8: 88-H1L2 (antibody, V domains shown)
VH: EVQLVESGGGLVQPGGSLKLSCAASGFTFNPNAMNWVRQASGKGLEWVGRIRSKSNNYATYYADSVKDRFTISRDDSKNTAYLQMNSLKTEDTAVYYCTRGKDDGYRHYAMDYWGQGTTVTVSS
VL: DIVMTQSPLSLPVTPGEPASISCRSSKSLLHSNANTYLYWFLQKPGQSPQLLIYRMSNLASGVPDRFSGSGSGTAFTLKISRVEAEDVGVYYCMQHLEYPFTFGGGTKVEIK
notes: Humanized 88D2C6
In test [6], B8 returned a Bottom of 2110, a LogEC50 of -0.678, a Span of 26800 and a Top of 28900. In test [7], this molecule registered a Bottom of 2670, a LogEC50 of -0.751, a Span of 30100 and a Top of 32800.

B9: 137-H3L3 (antibody, V domains shown)
VH: EVQLVESGGGLVQPGGSLKLSCAASGFTFNTYAMNWVRQASGKGLEWVARIRSKANNYATYYADSVKDRFTISRDDSKNTLYLQMNNLKTEDTAVYYCVRDRSRGEDYAMDYWGQGTLVTVSS
VL: DIVMTQSPLSLPVTPGEPVSISCRSSKSLLHSNANTYLYWFLQKPGQSPQLLIYRMSNLASGVPDRFSGSGSGTAFTLKISRVEAEDVGVYYCMQHLEYPFTFGQGTKLEIK
notes: Humanized 137D1H10
In test [4], B9 gave a Bottom of 2100, a LogEC50 of -0.717, a Span of 29800 and a Top of 31900. Besides, in test [5], the Bottom stood at 3820, the LogEC50 is -0.754, the Span is 29600 and the Top amounted to 33400.

B10: 88-H1L3 (antibody, V domains shown)
VH: EVQLVESGGGLVQPGGSLKLSCAASGFTFNPNAMNWVRQASGKGLEWVGRIRSKSNNYATYYADSVKDRFTISRDDSKNTAYLQMNSLKTEDTAVYYCTRGKDDGYRHYAMDYWGQGTTVTVSS
VL: DIVMTQAPLSLPVTPGEPVSISCRSSKSLLHSNANTYLYWFLQKPGQSPQLLIYRMSNLASGVPDRFSGSGSGTAFTLKISRVEAEDVGVYYCMQHLEYPFTFGGGTKLEIK
notes: Humanized 88D2C6
In test [6], B10 returned a Bottom of 1540, a LogEC50 of -0.58, a Span of 26100 and a Top of 27600. Moreover, in test [7], the Bottom worked out at 2140, the LogEC50 is -0.519, the Span worked out at 29800 and the Top is 31900.

B11: 88-H3L2 (antibody, V domains shown)
VH: EVQLVESGGGLVQPGGSLKLSCAASGFTFNPNAMNWVRQASGKGLEWVARIRSKSNNYATYYADSVKDRFTISRDDSKNTLYLQMNNLKTEDTAVYYCVRGKDDGYRHYAMDYWGQGTTVTVSS
VL: DIVMTQSPLSLPVTPGEPASISCRSSKSLLHSNANTYLYWFLQKPGQSPQLLIYRMSNLASGVPDRFSGSGSGTAFTLKISRVEAEDVGVYYCMQHLEYPFTFGGGTKVEIK
notes: Humanized 88D2C6
In test [6], B11 showed a Bottom of 2830, a LogEC50 of -0.684, a Span of 24600 and a Top of 27400. In test [7], this molecule displayed a Bottom of 3940, a LogEC50 of -0.686, a Span of 28600 and a Top of 32500.

B12: 88D2C6 (fused to human IgG1 constant regions, with ADCC-activating mutations in Fc) (antibody, V domains shown)
VH: EVQLVETGGGLVQPKGSLKLSCAASGFTFNPNAMNWVRQAPGKGLEWVARIRSKSNNYATYYADSVKDRFTISRDDSQSMLYLQMNNLKTEDTAMYYCVRGKDDGYRHYAMDYWGQGTSVTVSS
VL: DIVMTQAAPSVPVTPGESVSISCRSSKSLLHSNGNTYLYWFLQRPGQSPQLLIYRMSNLASGVPDRFSGSGSGTAFTLRISRVEAEDVGVYYCMQHLEYPFTFGAGTKLELK
B12: the “ADCC EC50 (CCR8-overexpressing CHO K1 cells)” value in test [3] came to 0.0174 nM.

B13: 88-xi (antibody, V domains shown)
VH: EVQLVETGGGLVQPKGSLKLSCAASGFTFNPNAMNWVRQAPGKGLEWVARIRSKSNNYATYYADSVKDRFTISRDDSQSMLYLQMNNLKTEDTAMYYCVRGKDDGYRHYAMDYWGQGTSVTVSS
VL: DIVMTQAAPSVPVTPGESVSISCRSSKSLLHSNGNTYLYWFLQRPGQSPQLLIYRMSNLASGVPDRFSGSGSGTAFTLRISRVEAEDVGVYYCMQHLEYPFTFGAGTKLELK
notes: also called 88D2C6; chimeric 88D2C6
Consider B13, for which, in test [6], the Bottom worked out at 1030, the LogEC50 was -0.692, the Span turned out to be 28600 and the Top was 29700. In test [7], this molecule displayed a Bottom of 3630, a LogEC50 of -0.655, a Span of 30300 and a Top of 33900.
